Experimental data taken from patent US20110288011A1, “PEPTIDE THERAPEUTIC CONJUGATES AND USES THEREOF” (priority 2008, published 2011).

Test system: ob/ob mice
Experiment: Body weight of ob/ob mice treated with recombinant leptin
Type: in vivo
Conditions: 0.1 mg/mouse or 0.25 mg/mouse daily
Description: As a control, we tested the ability of recombinant leptin to reduce body weight in ob/ob mice using either 0.1 mg/mouse or 0.25 mg/mouse daily.

B1: recombinant leptin: recombinant leptin used as a control in ob/ob mice (protein, UniProt P41160 22-167, looked up)
Leptin: VPIQKVQDDTKTLIKTIVTRINDISHTQSVSAKQRVTGLDFIPGLHPILSLSKMDQTLAVYQQVLTSLPSQNVLQIANDLENLRDLLHLLAFSKSCSLPQTSGLQKPESLDGVLEASLYSTEVVALSRLQGSLQDILQQLDVSPEC
Which body weight does the source give for B1 here?
Its body weight is “reduce body weight in these mice in a dose-dependent manner”.
